Values belong to the substance of their own block, whether it stands above or below them.
Experiments:
Test in all cases: crystal structure
[1] = molecular target: W0, fused 4-oxalocrotonate tautomerase from Advenella mimigardefordensis DPN7 (Advenella mimigardefordensis DPN7)
[2] = molecular target: Q0, fused 4-oxalocrotonate tautomerase from Bordetella trematum (Bordetella trematum)
[3] = molecular target: R7, fused 4-oxalocrotonate tautomerase from Burkholderia sp. RPE67 (Burkholderia sp. RPE67)
[4] = molecular target: F6, fused 4-oxalocrotonate tautomerase from Caballeronia arationis (Caballeronia arationis)

- stoichiometry N [1]: 3
Substance: W0, fused 4-oxalocrotonate tautomerase from Advenella mimigardefordensis DPN7 (enzyme)

- stoichiometry N [2]: 3
Substance: Q0, fused 4-oxalocrotonate tautomerase from Bordetella trematum (enzyme)

- stoichiometry N [3]: 3
Substance: R7, fused 4-oxalocrotonate tautomerase from Burkholderia sp. RPE67 (enzyme)

- stoichiometry N [4]: 3
Substance: F6, fused 4-oxalocrotonate tautomerase from Caballeronia arationis (enzyme)

Source: paper PMC7254967
